First the molecules themselves.
B1: Zinc finger homeobox protein 4, residues 2562 to 2617; numbered along this chain, Q86UP3 (parent)
chain: RLRTTITPEQLEILYEKYLLDSNPTRKMLDHIAREVGLKKRVVQVWFQNTRARERK

The values that follow come from the Human Domainome abundance scans (Beltran et al. 2025).

± gives the uncertainty stated by the source.

This data set covers variants of B1. The data set can be described thus: abundance fitness (aPCA) (normalised: wild type 0, dead -1); higher = more abundant; growth selection in yeast, the domain comes from the species named. The conditions noted are these: Homo sapiens.
RLRTSITPEQLEILYEKYLLDSNPTRKMLDHIAREVGLKKRVVQVWFQNTRARERK [T5S]: the abundance fitness was -0.068 ± 0.053.
RLRTIITPEQLEILYEKYLLDSNPTRKMLDHIAREVGLKKRVVQVWFQNTRARERK [T5I]: the abundance fitness was 0.057 ± 0.17.
Turning to RLRTYITPEQLEILYEKYLLDSNPTRKMLDHIAREVGLKKRVVQVWFQNTRARERK [T5Y], the abundance fitness was -0.252 ± 0.23.
On to RLRTEITPEQLEILYEKYLLDSNPTRKMLDHIAREVGLKKRVVQVWFQNTRARERK [T5E], for which the abundance fitness was determined as 0.141 ± 0.15.
Consider RLRTPITPEQLEILYEKYLLDSNPTRKMLDHIAREVGLKKRVVQVWFQNTRARERK [T5P], for which the abundance fitness was -0.032 ± 0.25.
As to RLRTMITPEQLEILYEKYLLDSNPTRKMLDHIAREVGLKKRVVQVWFQNTRARERK [T5M], the abundance fitness was -0.241 ± 0.29.
On to RLRTGITPEQLEILYEKYLLDSNPTRKMLDHIAREVGLKKRVVQVWFQNTRARERK [T5G], for which the abundance fitness is -0.132 ± 0.097.
Consider RLRTRITPEQLEILYEKYLLDSNPTRKMLDHIAREVGLKKRVVQVWFQNTRARERK [T5R], for which the abundance fitness is -0.34 ± 0.076.
In the case of RLRTQITPEQLEILYEKYLLDSNPTRKMLDHIAREVGLKKRVVQVWFQNTRARERK [T5Q], the abundance fitness was 0.085 ± 0.13.
With RLRTFITPEQLEILYEKYLLDSNPTRKMLDHIAREVGLKKRVVQVWFQNTRARERK [T5F], the abundance fitness is -0.312 ± 0.13.
For RLRTLITPEQLEILYEKYLLDSNPTRKMLDHIAREVGLKKRVVQVWFQNTRARERK [T5L], the abundance fitness is -0.298 ± 0.15.
In the case of RLRTNITPEQLEILYEKYLLDSNPTRKMLDHIAREVGLKKRVVQVWFQNTRARERK [T5N], the abundance fitness was 0.265 ± 0.19.
RLRTKITPEQLEILYEKYLLDSNPTRKMLDHIAREVGLKKRVVQVWFQNTRARERK [T5K]: the abundance fitness was -0.332 ± 0.31.
Take RLRTWITPEQLEILYEKYLLDSNPTRKMLDHIAREVGLKKRVVQVWFQNTRARERK [T5W]: the abundance fitness was -0.397 ± 0.16.
RLRTDITPEQLEILYEKYLLDSNPTRKMLDHIAREVGLKKRVVQVWFQNTRARERK [T5D]: the abundance fitness is 0.068 ± 0.23.
RLRTAITPEQLEILYEKYLLDSNPTRKMLDHIAREVGLKKRVVQVWFQNTRARERK [T5A]: the abundance fitness was -0.398 ± 0.22.
Turning to RLRTVITPEQLEILYEKYLLDSNPTRKMLDHIAREVGLKKRVVQVWFQNTRARERK [T5V], the abundance fitness was 0.025 ± 0.084.
For the variant RLRTTIEPEQLEILYEKYLLDSNPTRKMLDHIAREVGLKKRVVQVWFQNTRARERK [T7E], the abundance fitness amounted to 0.259 ± 0.14.
With RLRTTIIPEQLEILYEKYLLDSNPTRKMLDHIAREVGLKKRVVQVWFQNTRARERK [T7I] the figure was -0.756 ± 0.43; with RLRTTIAPEQLEILYEKYLLDSNPTRKMLDHIAREVGLKKRVVQVWFQNTRARERK [T7A], 0.208 ± 0.12; with RLRTTIGPEQLEILYEKYLLDSNPTRKMLDHIAREVGLKKRVVQVWFQNTRARERK [T7G], -0.155 ± 0.066.
As for RLRTTICPEQLEILYEKYLLDSNPTRKMLDHIAREVGLKKRVVQVWFQNTRARERK [T7C], the abundance fitness was -0.258 ± 0.3.
On to RLRSTITPEQLEILYEKYLLDSNPTRKMLDHIAREVGLKKRVVQVWFQNTRARERK [T4S], for which the abundance fitness is -0.057 ± 0.07.
For RLRPTITPEQLEILYEKYLLDSNPTRKMLDHIAREVGLKKRVVQVWFQNTRARERK [T4P], the abundance fitness turned out to be 0.037 ± 0.11.
As for RLRWTITPEQLEILYEKYLLDSNPTRKMLDHIAREVGLKKRVVQVWFQNTRARERK [T4W], the abundance fitness is -0.305 ± 0.057.
For the variant RLRVTITPEQLEILYEKYLLDSNPTRKMLDHIAREVGLKKRVVQVWFQNTRARERK [T4V], the abundance fitness was -0.179 ± 0.07.
RLRRTITPEQLEILYEKYLLDSNPTRKMLDHIAREVGLKKRVVQVWFQNTRARERK [T4R]: the abundance fitness was -0.63 ± 0.075.
For RLRYTITPEQLEILYEKYLLDSNPTRKMLDHIAREVGLKKRVVQVWFQNTRARERK [T4Y], the abundance fitness was -0.109 ± 0.15.
As to RLRQTITPEQLEILYEKYLLDSNPTRKMLDHIAREVGLKKRVVQVWFQNTRARERK [T4Q], the abundance fitness is -0.096 ± 0.12.
Under RLRTTPTPEQLEILYEKYLLDSNPTRKMLDHIAREVGLKKRVVQVWFQNTRARERK [I6P] stands -0.056 ± 0.074.
Consider RLRTTATPEQLEILYEKYLLDSNPTRKMLDHIAREVGLKKRVVQVWFQNTRARERK [I6A], for which the abundance fitness was -0.266 ± 0.099.
As to RLRTTTTPEQLEILYEKYLLDSNPTRKMLDHIAREVGLKKRVVQVWFQNTRARERK [I6T], the abundance fitness is -0.584 ± 0.19.
For the variant RLRTTDTPEQLEILYEKYLLDSNPTRKMLDHIAREVGLKKRVVQVWFQNTRARERK [I6D], the abundance fitness is -0.759 ± 0.13.
With RLRTTQTPEQLEILYEKYLLDSNPTRKMLDHIAREVGLKKRVVQVWFQNTRARERK [I6Q], the abundance fitness was -0.761 ± 0.14.
With RLRTTWTPEQLEILYEKYLLDSNPTRKMLDHIAREVGLKKRVVQVWFQNTRARERK [I6W] the figure was -0.465 ± 0.072; with RLRTTKTPEQLEILYEKYLLDSNPTRKMLDHIAREVGLKKRVVQVWFQNTRARERK [I6K], -0.852 ± 0.37.
In the case of RLRTTNTPEQLEILYEKYLLDSNPTRKMLDHIAREVGLKKRVVQVWFQNTRARERK [I6N], the abundance fitness is -0.708 ± 0.32.
For the variant RLRTTCTPEQLEILYEKYLLDSNPTRKMLDHIAREVGLKKRVVQVWFQNTRARERK [I6C], the abundance fitness is -0.565 ± 0.1.
Take RLRTTVTPEQLEILYEKYLLDSNPTRKMLDHIAREVGLKKRVVQVWFQNTRARERK [I6V]: the abundance fitness was -0.248 ± 0.081.
With RLRTTRTPEQLEILYEKYLLDSNPTRKMLDHIAREVGLKKRVVQVWFQNTRARERK [I6R], the abundance fitness is -0.983 ± 0.076.
For the variant RLRTTMTPEQLEILYEKYLLDSNPTRKMLDHIAREVGLKKRVVQVWFQNTRARERK [I6M], the abundance fitness amounted to 0.144 ± 0.14.
Under RLRTTGTPEQLEILYEKYLLDSNPTRKMLDHIAREVGLKKRVVQVWFQNTRARERK [I6G] stands -0.264 ± 0.049; under RLRTTETPEQLEILYEKYLLDSNPTRKMLDHIAREVGLKKRVVQVWFQNTRARERK [I6E], -0.477 ± 0.14; under RLRTTLTPEQLEILYEKYLLDSNPTRKMLDHIAREVGLKKRVVQVWFQNTRARERK [I6L], -0.196 ± 0.07.
Under RLRTTSTPEQLEILYEKYLLDSNPTRKMLDHIAREVGLKKRVVQVWFQNTRARERK [I6S] stands -0.652 ± 0.06; under RLRTTYTPEQLEILYEKYLLDSNPTRKMLDHIAREVGLKKRVVQVWFQNTRARERK [I6Y], 0.06 ± 0.089; under RLRTTHTPEQLEILYEKYLLDSNPTRKMLDHIAREVGLKKRVVQVWFQNTRARERK [I6H], -0.202 ± 0.29.
